T1: C. elegans LIN9-LIN52 heterodimeric Myb-binding domain complex (C. elegans, UniProt P30630 442-559; Q10120 75-139)
T1 construct: also called nematode LIN9-LIN52; ceLIN9; source: E. coli, co-expressed, purified (glutathione-sepharose, anion exchange, TEV cleavage, Superdex 200); not shown: GST, N-terminal, cleaved
T1 sequence (looked up) 1: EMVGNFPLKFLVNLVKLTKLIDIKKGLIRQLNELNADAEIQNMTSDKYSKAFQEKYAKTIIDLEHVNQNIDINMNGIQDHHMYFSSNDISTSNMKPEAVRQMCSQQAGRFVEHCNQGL
T1 sequence (looked up) 2: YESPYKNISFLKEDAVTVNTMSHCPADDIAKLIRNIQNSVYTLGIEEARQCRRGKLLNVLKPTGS


Legend:
[1] = target: Drosophila LIN9-LIN52 heterodimeric Myb-binding domain complex (D. melanogaster); experiment: ITC; Myb fragment (~500 μM) in the syringe injected into LIN9-LIN52 heterodimer (~25–50 μM) at 25°C; 20 mM Tris, 150 mM NaCl, 1 mM beta mercaptoethanol, pH 8.0; MicroCal VP-ITC; triplicate
[2] = target: T1, C. elegans LIN9-LIN52 heterodimeric …; experiment: as above; conditions: both partners purified

Kd [1] [µM]	Kd [2] [µM]	Binder
3	7	VIDPKWARVACGKSRDQMFMEEQAYACLKNL (domain or fragment, D. melanogaster, UniProt P04197 602-632, looked up, Expressed from the pGEX vector and 'purified as described for the LIN9-LIN52 complex'; also called Drosophila Myb; dmMyb; source: E. coli, purified (glutathione-sepharose, anion exchange, TEV cleavage, Superdex 200); not shown: GST, N-terminal, cleaved) [Drosophila melanogaster Myb MuvB-binding domain (residues 602-632), wild type]
41	70	VIDPAAARVACGKSRDQMFMEEQAYACLKNL (domain or fragment, D. melanogaster, UniProt P04197 602-632, looked up, Expressed from the pGEX vector and 'purified as described for the LIN9-LIN52 complex'; also called KW; source: E. coli, purified (glutathione-sepharose, anion exchange, TEV cleavage, Superdex 200); not shown: GST, N-terminal, cleaved)

— article PMC7225089, “A long lost key opens an ancient lock: Drosophila Myb causes a synthetic multivulval phenotype in nematodes” (Biology Open, 2020)
